T1: L-PGDS mutant Cys^89,186Ala (Mus musculus, UniProt O09114, C186A/C89A)
T1 construct: GST (N, cleaved yes); made in house; host or cells: Escherichia coli DH5α
T1 sequence (O09114 25-189 C89A/C186A): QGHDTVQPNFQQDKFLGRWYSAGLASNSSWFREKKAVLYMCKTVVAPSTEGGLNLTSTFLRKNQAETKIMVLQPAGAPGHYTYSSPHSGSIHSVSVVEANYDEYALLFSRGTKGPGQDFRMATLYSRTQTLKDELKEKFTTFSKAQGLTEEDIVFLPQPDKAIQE

T2: L-PGDS (Mus musculus, UniProt O09114)
T2 sequence (O09114 25-189): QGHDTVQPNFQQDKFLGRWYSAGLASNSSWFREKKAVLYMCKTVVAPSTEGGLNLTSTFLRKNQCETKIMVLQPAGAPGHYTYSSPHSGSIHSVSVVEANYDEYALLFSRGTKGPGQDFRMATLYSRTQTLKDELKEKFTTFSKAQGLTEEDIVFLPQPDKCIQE


How the values were obtained:
[1] = biological target: T1, L-PGDS mutant Cys^89,186Ala; test: Binding of prostaglandins to L-PGDS by surface plasmon resonance (BiaCore 2000); details: for binding to L-PGDS (in words): 10 µM (Figure 7)
Method: L-PGDS can act as a PGD2 transporter protein. […] That is, L-PGDS act as a PGD2 synthesis enzyme coupled with COX in cells and thereafter as an extracellular transporter of PGD2.
The binding of PGD2, PGE2 or PGF2α to L-PGDS was analyzed with BiaCore 2000 system (BiaCore, Uppsala, Sweden) using the surface plasmon resonance method. L-PGDS mutant Cys^89,186Ala was immobilized on CM5 sensor chip (BIAcore AB) coated with carboxymethyldextran. Binding assay was carried out at a constant flow rate of 30µ l/min. in the concentration range of 0.1 to 10 µ M in both the binding phase and the dissociation phase. After each assay, the sensor chip surface was regenerated with 15 µ l of 1.5 M urea. Rate constant values were calculated using analysis soft wear BIA Evaluation 3.0 soft wear after subtracting control surface (bovine serum albumin) using Langmuir 1: 1 binding model by four independent experiments.

L-PGDS = biological target: T2, L-PGDS; test: Binding of retinoids to L-PGDS
[2] = test system: human cerebellum medulloblast (TE671) expressing L-PGDS; test: Inhibition of A23187-stimulated PGD2 production from cells expressing L-PGDS (EIA); assay type: cell-based; details: TE-671 cells, A23187 5 µM, compound added 15 minutes before stimulation, medium recovered 15 minutes after
Method: TE-671 is seeded on microplate at the density of 1×10^7. The cells were stimulated by A231875 (5 µ M) to cause PGD2 production. […] The culture medium was recovered 15 minutes after A23187 stimulation to quantify the PGD2 concentration in the culture medium by enzyme immunoassay (EIA).

[3] = biological target: hematopoietic PGD Synthase (H-PGDS) (Homo sapiens, UniProt O60760); test: Inhibition of hematopoietic PGD synthase enzyme activity ([1-14C]PGH2 to PGD2, thin layer chromatography); assay type: biochemical; details: 3 to 300 µM; PGH2 40 µM, 0.1 mM GSH, 25°C, 30 seconds
Method: In the measurement of hematopoietic PGD Synthase (H-PGDS), [1-^14C] PGH2 (40µM) as substrate is reacted in the presence of 0.1 M Tris-HCl (pH 8.0) and 0.1 mM GSH (reduced glutathione) at 25°C for 30 seconds.
After the completion of the reaction, the reaction liquid was subjected to thin layer chromatography to isolate and quantify PGD2 to calculate enzyme activity.

H-PGDS = H-PGDS (Homo sapiens, UniProt O60760); test: Affinity of H-PGDS to PGD2; assay type: binding
[4] = substrate: [H][C@]12C[C@]([H])(OO1)[C@H](C/C=C\CCCC(=O)O)[C@H]2/C=C/[C@@H](O)CCCCC; test: PGDS activity kinetics of L-PGDS mutants; assay type: biochemical, mouse; details: other: Km for PGH2, pH=8.0, 25.0 °C
Text: Since the preparation of recombinant protein having the same PGDS activity as purified wild-type enzyme is easy, Cys^89,186Ala construct was used for this purpose. Various mutants were expressed, purified to homogeneity and L-PGDS activities were compared at pH 8, 9 and 10 (Figure 8) .
After a candidate compound of L-PGDS inhibitor is selected, it is preferably contacted with the enzyme in the presence of the substrate (prostaglandin H2) to confirm an ability of the compound to inhibit the enzyme (see, for example, Shimizu, t., Yamamoto, S., and Hayaishi O. (1979), Purification and Properties of prostaglandin D synthase from rat brain, J. Biol. Chem., 254:5222-5228). The enzyme activity can be measured, for example, as follows:
The substrate [1-^14C]prostaglandin (PG)H2 is synthesized by reacting [1^-14C]arachidonic acid with cyclooxygenase. Since PGH2 is easily decomposed in an aqueous solution (half life: about 5 minutes), it is evaporated to dryness and stored at low temperature(-80°C). The enzyme reaction is performed by injecting 1 µL of PGH2 solution(acetone or non-volatile diethylenediglycohol solution) with a microsyringe to 49 µ L of 0.1 M phosphate buffer (pH8.0) containing 1 mM dithiothreitol (DTT) and the enzyme. After the reaction at 25 °C for 30 to 60 seconds, the reaction is quenched by the addition of 300 µL of ice-cold mixed solution of ether/methanol/0.1 M citric acid (30:4:1 v/v/v) followed by extraction the substrate and reaction product under acidic condition into ether layer. Subsequently, anhydrous sodium sulfate was added to dehydrate it. An aliquot of organic layer (about 50 µ L) is coated on silica gel thin layer in a low temperature room (4°C) and subjected to silica gel thin layer chromatography in a freezer (-20 °C) (developing solvent: ether/methanol/acetic acid (90:2:1 v/v/v) . After the development, radioactivity of PGD2 fraction and fraction other than it are measured to calculate an enzyme activity based on the conversion ratio to PGD2.
The site-specific mutagenesis was performed using a Quick change site-directed mutagenesis kit (Stratgene, Heiderberg, Germany). The DNA sequence was confirmed by the determination of cycle sequencing by a SequiTherm cycle sequencing kit (Epicentre Technologies, Madison, WI) followed by LI-COR model 4000L automatic DNA sequencer (LI-COR Inc., Lincoln, NE)

Sequence of H-PGDS (O60760 whole entry, species assumed): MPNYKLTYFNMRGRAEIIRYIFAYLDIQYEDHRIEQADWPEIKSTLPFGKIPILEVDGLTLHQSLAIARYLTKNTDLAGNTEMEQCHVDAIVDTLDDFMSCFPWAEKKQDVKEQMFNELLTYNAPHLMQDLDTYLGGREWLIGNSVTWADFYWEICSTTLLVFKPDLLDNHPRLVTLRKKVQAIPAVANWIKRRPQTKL
Sequence of hematopoietic PGD Synthase (H-PGDS) (O60760 whole entry, species assumed): as above

Molecule | Km [4] | kcat/Km [4] | further results
CCCCC[C@H](O)/C=C/[C@@H]1[C@@H](C/C=C\CCCC(=O)O)[C@@H](O)C[C@H]1O [PGF2α] |  |  | binding to L-PGDS (in words) [1]: Neither PGE2 nor PGF2α is bound
CC1=C(/C=C/C(C)=C/C=C/C(C)=C/C=O)C(C)(C)CCC1 [retinal] |  |  | binding to L-PGDS (in words) (L-PGDS): binds
C1=Cc2ccccc2C(=C2CCN(CCCCc3nn[nH]n3)CC2)c2ccccc21 [AT-56, 4-dibenzo(a,d)cyclohepten-5-ylidene-1-(4-(2H-tetrazole-5-yl)butyl)piperidine] |  |  | inhibition of PGD2 production by A23187 stimulation (in words) [2]: dose-dependently inhibited; inhibition of H-PGDS (in words) [3]: does not inhibit
CCCCC[C@H](O)/C=C/[C@H]1[C@H](O)CC(=O)[C@@H]1C/C=C\CCCC(=O)O [PGE2] |  |  | binding to L-PGDS (in words) [1]: Neither PGE2 nor PGF2α is bound
CCCCC[C@H](O)/C=C/[C@H]1C(=O)C[C@H](O)[C@@H]1C/C=C\CCCC(=O)O [PGD2] |  |  | kon ([1]; Langmuir 1:1 binding model): 1.24x10^3 ± 37 M^-1sec^-1; Kd ([1]; Langmuir 1:1 binding model, four independent experiments): 0.0894 ± 0.0034 µM; affinity of H-PGDS to PGD2 (in words) (H-PGDS): does not show high affinity
mouse L-PGDS, Wild Type(C65), Cys^89,186Ala construct, SEQ ID NO:1 (Mus musculus; C186A/C89A) (protein) QGHDTVQPNFQQDKFLGRWYSAGLASNSSWFREKKAVLYMCKTVVAPSTEGGLNLTSTFLRKNQAETKIMVLQPAGAPGHYTYSSPHSGSIHSVSVVEANYDEYALLFSRGTKGPGQDFRMATLYSRTQTLKDELKEKFTTFSKAQGLTEEDIVFLPQPDKAIQE | 13 µM | 2.38 µM^-1Min^-1 | 
mouse L-PGDS mutant K92E (Lys^92Glu) in Cys^89,186Ala construct (Mus musculus; C186A/C89A/K92E) (protein) QGHDTVQPNFQQDKFLGRWYSAGLASNSSWFREKKAVLYMCKTVVAPSTEGGLNLTSTFLRKNQAETEIMVLQPAGAPGHYTYSSPHSGSIHSVSVVEANYDEYALLFSRGTKGPGQDFRMATLYSRTQTLKDELKEKFTTFSKAQGLTEEDIVFLPQPDKAIQE | 14 µM | 5.71 µM^-1Min^-1 | 
mouse L-PGDS mutant F83I (Phe^83Ile) in Cys^89,186Ala construct (Mus musculus; C186A/C89A/F83I) (protein) QGHDTVQPNFQQDKFLGRWYSAGLASNSSWFREKKAVLYMCKTVVAPSTEGGLNLTSTILRKNQAETKIMVLQPAGAPGHYTYSSPHSGSIHSVSVVEANYDEYALLFSRGTKGPGQDFRMATLYSRTQTLKDELKEKFTTFSKAQGLTEEDIVFLPQPDKAIQE | 15 µM | 4.47 µM^-1Min^-1 | 
mouse L-PGDS mutant S81A (Ser^81Ala) in Cys^89,186Ala construct (Mus musculus; C186A/C89A/S81A) (protein) QGHDTVQPNFQQDKFLGRWYSAGLASNSSWFREKKAVLYMCKTVVAPSTEGGLNLTATFLRKNQAETKIMVLQPAGAPGHYTYSSPHSGSIHSVSVVEANYDEYALLFSRGTKGPGQDFRMATLYSRTQTLKDELKEKFTTFSKAQGLTEEDIVFLPQPDKAIQE | 12 µM | 0.50 µM^-1Min^-1 | 
mouse L-PGDS mutant R85E (Arg^85Glu) in Cys^89,186Ala construct (Mus musculus; C186A/C89A/R85E) (protein) QGHDTVQPNFQQDKFLGRWYSAGLASNSSWFREKKAVLYMCKTVVAPSTEGGLNLTSTFLEKNQAETKIMVLQPAGAPGHYTYSSPHSGSIHSVSVVEANYDEYALLFSRGTKGPGQDFRMATLYSRTQTLKDELKEKFTTFSKAQGLTEEDIVFLPQPDKAIQE | 7 µM | 4.86 µM^-1Min^-1 | 
mouse L-PGDS mutant S45A (Ser^45Ala) in Cys^89,186Ala construct (Mus musculus; C186A/C89A/S45A) (protein) QGHDTVQPNFQQDKFLGRWYAAGLASNSSWFREKKAVLYMCKTVVAPSTEGGLNLTSTFLRKNQAETKIMVLQPAGAPGHYTYSSPHSGSIHSVSVVEANYDEYALLFSRGTKGPGQDFRMATLYSRTQTLKDELKEKFTTFSKAQGLTEEDIVFLPQPDKAIQE | 11 µM |  | 
mouse L-PGDS mutant T147A (Thr^147Ala) in Cys^89,186Ala construct (Mus musculus; C186A/C89A/T147A) (protein) QGHDTVQPNFQQDKFLGRWYSAGLASNSSWFREKKAVLYMCKTVVAPSTEGGLNLTSTFLRKNQAETKIMVLQPAGAPGHYTYSSPHSGSIHSVSVVEANYDEYALLFSRGTKGPGQDFRMAALYSRTQTLKDELKEKFTTFSKAQGLTEEDIVFLPQPDKAIQE | 19 µM | 0.95 µM^-1Min^-1 | 

— patent publication EP1574569A1, “THREE-DIMENSIONAL STRUCTURE OF LIPOCALIN-TYPE PROSTAGLANDIN D SYNTHASE AND UTILIZATION OF THE SAME” (RIKEN, priority 2002, dated 2004)
